pKd: −log10 of the molar value.
Legend:
[1] = target: SRP (Escherichia coli) (UniProt P0AGD7); details: cited from earlier work
[2] = target: SRP(MDCC): signal recognition particle with MDCC at position 235 in the G domain of Ffh (Escherichia coli) (UniProt P0AGD7); assay: other fluorescence titration; SRP(MDCC) 25 nM titrated with FtsY(Bpy); SRP bound to Lep50-RNC (10 nM); buffer A, 25 °C; apparent
[3] = target: SRP(MDCC): signal recognition particle with MDCC at position 235 in the G domain of Ffh (Escherichia coli) (UniProt P0AGD7); assay: stopped-flow FRET kinetics; Lep50-RNC (30 nM) in complex with SRP(MDCC) (500 nM) rapidly mixed with FtsY(Bpy) (1 µM); no SecYEG
[4] = target: SRP(MDCC): signal recognition particle with MDCC at position 235 in the G domain of Ffh (Escherichia coli) (UniProt P0AGD7); assay: other fluorescence titration; equilibrium titration monitored by FRET; SRP(MDCC) 25 nM titrated with FtsY(Bpy); SRP bound to 70S ribosomes (500 nM); buffer A, 25 °C; apparent
[5] = target: SRP(MDCC): signal recognition particle with MDCC at position 235 in the G domain of Ffh (Escherichia coli) (UniProt P0AGD7); assay: other fluorescence titration; as a22 (Lep75-RNC), with SecYEG in nanodiscs (300 nM); apparent
[6] = target: SRP(MDCC): signal recognition particle with MDCC at position 235 in the G domain of Ffh (Escherichia coli) (UniProt P0AGD7); assay: stopped-flow FRET kinetics; 70S ribosomes (50 nM) in complex with SRP(MDCC) (500 nM) rapidly mixed with FtsY(Bpy) (1 µM); acceptor (Bpy) fluorescence; no SecYEG
[7] = target: Lep50- or Lep75-RNC; assay: other fluorescence titration; as a5, in the presence of saturating amounts of SecYEG in nanodiscs; apparent
[8] = target: (Bpy)Lep50-RNC: stalled ribosome-nascent-chain complex with a nascent chain of leader peptidase (Lep) of 50 amino acids, Bodipy FL at the N-terminal methionine (Escherichia coli) (UniProt P00803); assay: other fluorescence titration; as a5, RNC in complex with FtsY (1 µM) and SecYEG in nanodiscs (increasing to saturating); apparent
[9] = target: (Bpy)Lep75-RNC: stalled ribosome-nascent-chain complex with a nascent chain of leader peptidase (Lep) of 75 amino acids, Bodipy FL at the N-terminal methionine (Escherichia coli) (UniProt P00803); assay: as above
[10] = target: Lep50- or Lep75-RNC; assay: other fluorescence titration; equilibrium titration monitored by FRET; (Bpy)Lep-RNC 4 nM titrated with SRP(Alx), GDPNP 500 µM, buffer A, 25 °C; apparent; without SecYEG
[11] = target: (Bpy)Lep50-RNC: stalled ribosome-nascent-chain complex with a nascent chain of leader peptidase (Lep) of 50 amino acids, Bodipy FL at the N-terminal methionine (Escherichia coli) (UniProt P00803); assay: other fluorescence titration; as a5, in the presence of FtsY (1 µM) and SecY39EG in nanodiscs; apparent
[12] = target: (Bpy)Lep75-RNC: stalled ribosome-nascent-chain complex with a nascent chain of leader peptidase (Lep) of 75 amino acids, Bodipy FL at the N-terminal methionine (Escherichia coli) (UniProt P00803); assay: as above
[13] = target: FtsY (Escherichia coli) (UniProt P10121); details: cited from earlier work

Sequence of SecYEG (P0AGA2 whole entry): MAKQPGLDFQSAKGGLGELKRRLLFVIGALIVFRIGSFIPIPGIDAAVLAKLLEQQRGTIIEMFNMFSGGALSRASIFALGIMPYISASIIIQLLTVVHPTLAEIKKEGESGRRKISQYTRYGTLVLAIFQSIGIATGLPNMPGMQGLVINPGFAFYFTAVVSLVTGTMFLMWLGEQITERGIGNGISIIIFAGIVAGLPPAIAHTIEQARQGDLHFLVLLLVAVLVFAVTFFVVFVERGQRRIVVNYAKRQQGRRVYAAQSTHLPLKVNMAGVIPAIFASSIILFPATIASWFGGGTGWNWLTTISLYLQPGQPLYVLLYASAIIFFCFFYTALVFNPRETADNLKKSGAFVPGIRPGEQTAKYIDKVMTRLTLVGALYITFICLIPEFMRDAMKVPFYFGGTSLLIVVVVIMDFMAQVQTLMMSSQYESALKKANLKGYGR
Sequence of SecYEG (P0AG96 whole entry, further chain): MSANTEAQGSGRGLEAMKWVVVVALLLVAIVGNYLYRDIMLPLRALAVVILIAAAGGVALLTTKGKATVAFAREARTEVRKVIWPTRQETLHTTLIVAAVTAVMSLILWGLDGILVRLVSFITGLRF
Sequence of SecYEG (P0AG99 whole entry, further chain): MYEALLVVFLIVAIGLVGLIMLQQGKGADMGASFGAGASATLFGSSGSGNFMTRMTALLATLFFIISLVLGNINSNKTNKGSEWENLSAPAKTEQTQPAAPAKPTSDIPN
Sequence of FtsY (P10121 2-497): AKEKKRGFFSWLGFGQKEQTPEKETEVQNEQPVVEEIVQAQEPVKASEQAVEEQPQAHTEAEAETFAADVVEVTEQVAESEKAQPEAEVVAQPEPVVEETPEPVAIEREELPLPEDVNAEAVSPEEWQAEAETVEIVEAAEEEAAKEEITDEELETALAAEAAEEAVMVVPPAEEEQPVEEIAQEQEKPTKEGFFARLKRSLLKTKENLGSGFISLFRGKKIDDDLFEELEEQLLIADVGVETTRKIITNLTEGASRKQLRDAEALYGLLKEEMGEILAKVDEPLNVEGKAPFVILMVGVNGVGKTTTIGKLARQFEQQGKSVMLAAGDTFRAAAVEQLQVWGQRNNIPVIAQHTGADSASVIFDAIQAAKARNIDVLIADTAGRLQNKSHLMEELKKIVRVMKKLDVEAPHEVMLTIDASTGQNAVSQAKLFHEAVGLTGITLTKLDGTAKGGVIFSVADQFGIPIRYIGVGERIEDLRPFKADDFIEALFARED

**Q.** With FtsY (from UniProt P10121) as the substance, how does the pKd [1] read?
**A.** 6.30

**Q.** With “FtsY(Bpy): SRP receptor FtsY with Bodipy FL at position 487 in the N domain (from UniProt P10121 1-497)” as the substance, how does the pKd [2] read?
**A.** 8.00 to 8.30

**Q.** What about the average half-life time of association [3] of the same substance?
**A.** 1 s

**Q.** And the pKd [4]?
**A.** 7.30

**Q.** And the pKd [5]?
**A.** 7.40

**Q.** And the fold increase of the appKd with SecYEG against without SecYEG [5]?
**A.** 10 fold

**Q.** What about the half-life time of association [6] of the same substance?
**A.** 15 s

**Q.** Which results are given for “SRP(Alx): signal recognition particle with Alexa555 at position 430 in the M domain of SRP protein Ffh (from UniProt P0AGD7 1-453) (complex)”?
**A.** pKd [7]: 7.70 to 7.82; pKd [8]: 7.30; α (factor by which the appKd of SRP binding is increased by SecYEG–FtsY) [9]: 4; pKd [10]: 8.40 to 8.52; fold change of the apparent affinity with SecY39EG–FtsY [11]: < 5 fold; fold change of the apparent affinity with SecY39EG–FtsY [12]: < 5 fold

**Q.** With SecYEG (from UniProt P0AGA2) as the substance, how does the pKd [13] read?
**A.** 6.70
